Assay results reported in IntAct's records for PubMed 17405859.

B1: Neuropilin-1 (Rattus norvegicus (Rat)), Q9QWJ9 (parent)
chain: MERGLPLLCATLALALALAGAFRSDKCGGTIKIENPGYLTSPGYPHSYHPSEKCEWLIQAPEPYQRIMINFNPHFDLEDRDCKYDYVEVIDGENEGGRLWGKFCGKIAPSPVVSSGPFLFIKFVSDYETHGAGFSIRYEIFKRGPECSQNYTAPTGVIKSPGFPEKYPNSLECTYIIFAPKMSEIILEFESFDLEQDSNPPGGVFCRYDRLEIWDGFPEVGPHIGRYCGQKTPGRIRSSSGILSMVFYTDSAIAKEGFSANYSVLQSSISEDFKCMEALGMESGEIHSDQITASSQYGTNWSVERSRLNYPENGWTPGEDSYREWIQVDLGLLRFVTAVGTQGAISKETKKKYYVKTYRVDISSNGEDWITLKEGNKAIIFQGNTNPTDVVFGVFPKPLITRFVRIKPASWETGISMRFEVYGCKITDYPCSGMLGMVSGLISDSQITASNQGDRNWMPENIRLVTSRTGWALPPSPHPYINEWLQVDLGDEKIVRGVIIQGGKHRENKVFMRKFKIAYSNNGSDWKMIMDDSKRKAKSFEGNNNYDTPELRAFTPLSTRFIRIYPERATHSGLGLRMELLGCEVEVPTAGPTTPNGNPVDECDDDQANCHSGTGDDFQLTGGTTVLATEKPTIIDSTIQSEFPTYGFNCEFGWGSHKTFCHWEHDSHAQLRWRVLTSKTGPIQDHTGDGNFIYSQADENQKGKVARLVSPVVYSQSSAHCMTFWYHMSGSHVGTLRVKLHYQKPEEYDQLVWMVVGHQGDHWKEGRVLLHKSLKLYQVIFEGEIGKGNLGGIAVDDISINNHIPQEDCAKPTDLDKKNTEIKIDETGSTPGYEEGKGDKNISRKPGNVLKTLDPILITIIAMSALGVLLGAVCGVVLYCACWHNGMSERNLSALENYNFELVDGVKLKKDKLNPQSNYSEA

Variants of: B1
Settings: with vegfa_human VEGFA

Effect of a mutation on the interaction, disrupting interaction strength:
T349A
S346A
E348A
